Measured values taken from patent publication US20110191903A1, “ENGINEERING PLANT RESISTANCE TO DISEASES CAUSED BY PATHOGENS” (Pioneer Hi-Bred International, Inc., priority 2009, published 2011).
Numbering of substitutions follows the chain as printed. Numbers in names are those of the source.

Tests used:
Format in all cases: biochemical, Ceriporiopsis subvermispora
[1] = substrate: O=C(O)C(=O)O; experiment: Oxalate oxidase kinetics, coupled horse radish peroxidase assay, ALT6 (3-21)
From the text: (§1) The E. coli expression system was based on the published protocol of Escutia et al. Escutia et al., Cloning and sequencing of two Ceriporiopsis subvermispora bicupin oxalate oxidase allelic isoforms: implications for the reaction specificity of oxalate oxidases and decarboxylases. (2005). The coding sequence for the mature OXOX enzyme was inserted in E. coli expression vector pET32 (Invitrogen) to include a 6× histidine tag at the C-terminus. The resulting expression plasmid was transformed into E. coli strain BL21Star pLysS (Invitrogen).
(§2) E. coli cultures were grown at 37° C. At optical density 0.4, arabinose was added to a concentration or 0.4%. After another hour of growth at 37° C., MnCl2 was added to 5 mM and IPTG to 1 mM. Cultures were then grown at 25° C. for 16 hours. Cells were harvested by centrifugation at 4000 rpm for 10 min. The supernatant was discarded and cell pellets were kept at −80° C. for at least one hour. Pellets were resuspended in total 40 ml of lysis buffer with 50 mM phosphate buffer pH7, 2 mg/ml protease inhibitor (sigma P-8465), 100 mM KCL, 1/1000 lysozyme, 1/2000 endonuclease, and incubated at 37° C. with shaking for one hour, followed by sonication. Cellular debris was removed by centrifugation and the clarified supernatant was poured into a new tube. Nickel resin (Qiagen) was added. After a short period of incubation, the slurry was poured onto a column and washed with buffer. Purified OXOX protein was eluted from the resin in 50 mM succinate pH 5, 100 mM KCl. The E. coli expression procedure was scalable allowing large scale protein production for kinetic analysis as well as small scale production for high throughput screening of libraries.
(§3) Oxalate oxidase enzymatic activity was determined in a coupled reaction. Oxalate oxidase converts oxalic acid to carbon dioxide and hydrogen peroxide. In the presence of horse radish peroxidase, hydrogen peroxide reacts with 3-methyl-2-benzothiazolinone hydrazone (MBTH) and N,N-dimethylaniline (DMA) to form indamine dye, which can be detected spectrophotmetrically or colorimetrically as described by Laker, M. F., Hoffman, A. F., and Meeuse, J. D. (1980) Clinical Chemistry 26, 827-830. The coupled reaction was used for characterization of oxalate oxidase kinetic properties as well as in a screening procedure to identify oxalate oxidase variants with improved enzymatic properties.
(§4) DNA shuffling was performed as described elsewhere herein. A polymerase chain reaction product corresponding to the OXOX-C coding sequence was fragmented by limited nuclease treatment. Synthetic oligonucleotides encoding sequence diversity from oxalate decarboxylase sequences found in public databases were added. A polymerase chain reaction procedure was performed on the mixture to yield a library of full length OXOX-C coding sequences with additional diversity incorporated. The resulting library was inserted in expression vector pET32, E. coli cells were transformed and protein was expressed, as described in Example 2. A tiered screening strategy was devised based on the OXOX protein expression and enzymatic activity determination procedures described in Examples 2 and 3, respectively. A high throughput screening process based on colorimetric determination of OXOX activity was utilized to identify individual E. coli strains harboring active OXOX variants. These OXOX-active strains were reassayed using quantitative spectrophotometric determination of OXOX activity. […] Three rounds of this iterative screening and selection procedure were completed, and OXOX variants with up to 8-fold improved activity were identified
(§5) More modest improvements in Km and Kcat were observed under lower pH conditions. Coupled reaction was preformed as described in Example 3. Enzyme kinetic parameters were determined by standard methods as described in Segel (1976) Biochemical calculations, 2nd Edition. John Wiley & Sons, London, New York, Sydney, Toronto.

[2] = substrate: O=C(O)C(=O)O; experiment: Oxalate oxidase kinetics, coupled horse radish peroxidase assay, ALT7 (3-25)
From the text: as §1, §2, §3, §4, §5

[3] = substrate: O=C(O)C(=O)O; experiment: Oxalate oxidase kinetics, coupled horse radish peroxidase assay, FG10
From the text: as §1, §2, §3, §4, §5

[4] = substrate: O=C(O)C(=O)O; experiment: Oxalate oxidase kinetics, coupled horse radish peroxidase assay, FG23
From the text: as §1, §2, §3, §4, §5

[5] = substrate: O=C(O)C(=O)O; experiment: Oxalate oxidase kinetics, coupled horse radish peroxidase assay, OXOX-C
From the text: Sequences of both OXOX C and G alleles were published by Escutia et al., 2005 and were deposited with EMBL: OXOX-C partial genomic DNA, Acession No. AJ746414; OXOX-C partial cDNA, Acession No. AJ563659; OXOX-G genomic DNA, Acession No. AJ563660; OXOX-G cDNA, Acession No. AJ746412. See also, Escutia et al., Cloning and sequencing of two Ceriporiopsis subvermispora bicupin oxalate oxidase allelic isoforms: implications for the reaction specificity of oxalate oxidases and decarboxylases. (2005). Based on published sequence, mature proteins of OXOX C (SEQ ID NO: 21) and G (SEQ ID NO: 22) were synthesized and fused to N-terminal barley alpha amylase signal sequence (BAA ss; SEQ ID NO:3). The fungal OXOX coding sequence was synthesized with codon usage suitable for expression in soybean (FIG. 1A) and E. coli (FIG. 1B).
as §1, §2, §3, §5

B1: Ceriporiopsis subvermispora oxalate oxidase OXOX-C variant ALT6 (3-21), L23P/I60E/T63Q/I99V/L177M/L196I/F259Y/I278V/F339Y/F387Y/F396Y relative to OXOX-C-ALT1 … (protein)
chain: RPTENGPQIVIANNAGTYLPVPRGSGTKSSSAADATQTVPFASDDPNPRLWDIDTKNLEKVQPERGQLGAKILGPDNLPIDLQNADTLAPPTTDSGSVPNPKWPFALSHNTLYSGGWVRIQNDEVMPIAKAMAGVNMRLEAGAIRELHWHNTPEWAYILKGTTQITAVDQNGRNYMANVGPGDLWYFPEGMPHSIQGTDANNEGSEFLLIFPDGTFDSSNQFMITDWLAHTPKDVIAKNFGVDISEFDRLPSHDLYIYPGVAPPLDAKAPEDPQGTVPLPYSFEFSKVKPTQYAGGTVKIADTRTFPIAKTISVAEVTVEPGAMRELHWHPTEDEWTYFIEGQARVTIFAGQSNAQTYDYQGGDIAYIPTAWGHYVENSGNTQLRYLEIFNSPLYEDVSLAQWIANTPPAIVKATLQLSDEVINTLNKQKAFVVG
[1]; other: pH 3.8, pH 3.8
  Km: 120 µM
  kcat: 2.79 s⁻¹
[1]; other: pH 4.8, pH 4.8
  Km: 550 µM
  kcat: 2.61 s⁻¹
[1]; other: pH 5.8, pH 5.8
  Km: 1460 µM
  kcat: 1.72 s⁻¹

B2: Ceriporiopsis subvermispora oxalate oxidase OXOX-C variant ALT7 (3-25), L23P/I54M/I60E/I99V/W118Y/P154A/I159V/L177M/D218N/F259Y/I278V/F339Y/Y359F/G363A/F396Y … (protein)
chain: B1 chain with I53M, Q62T, W117Y, P153A, I158V, I195L, D217N, Y358F, G362A, Y386F
[2]; other: pH 3.8, pH 3.8
  Km: 450 µM
  kcat: 12.01 s⁻¹
[2]; other: pH 4.8, pH 4.8
  Km: 2170 µM
  kcat: 8.28 s⁻¹
[2]; other: pH 5.8, pH 5.8
  Km: 7840 µM
  kcat: 5.85 s⁻¹

B3: Ceriporiopsis subvermispora oxalate oxidase OXOX-C variant FG10 (3-FG10), D53N/I60E/E65Q/K72E/S115T/Q171E/R174K/M192V/I278V/Y282F/Y359F/V399I/G436A plus S437, … (protein)
chain: RPTENGPQIVIANNAGTYLPVLRGSGTKSSSAADATQTVPFASDDPNPRLWNIDTKNLEKVTPQRGQLGAEILGPDNLPIDLQNADTLAPPTTDSGSIPNPKWPFALSHNTLYTGGWVRIQNDEVMPIAKAMAGVNMRLEAGAIRELHWHNTPEWAYILKGTTQITAVDENGKNYLANVGPGDLWYFPEGVPHSLQGTDANNEGSEFLLIFPDGTFDSSNQFMITDWLAHTPKDVIAKNFGVDISEFDRLPSHDLYIFPGVAPPLDAKAPEDPQGTVPLPFSFEFSKVKPTQYAGGTVKIADTRTFPIAKTISVAEVTVEPGAMRELHWHPTEDEWTFFIEGQARVTIFAGQSNAQTFDYQGGDIAYIPTAWGHYVENSGNTQLRFLEIFNSPLFEDISLAQWIANTPPAIVKATLQLSDEVINTLNKQKAFVVASD
notes: C-terminal 6xHis, pET32, E. coli, nickel purified
[3]; other: pH 3.8, pH 3.8
  Km: 400 µM
  kcat: 8.01 s⁻¹
[3]; other: pH 4.8, pH 4.8
  Km: 1830 µM
  kcat: 6.00 s⁻¹
[3]; other: pH 5.8, pH 5.8
  Km: 5900 µM
  kcat: 2.65 s⁻¹

B4: Ceriporiopsis subvermispora oxalate oxidase OXOX-C variant FG23 (3-FG23), … (protein)
chain: RPTENGPQIVIANNAGTYLPVLRGSGTKSSSAADATQTVPFASDDPNPRLWNIDTQDLSVVAPERGPLGAKILGPDNLPIDLQNADTLAPPTTDSGSVPNPKWPFALSHNTLYSGGWVRIQNNEVLPIAKAMAGVNMRLEAGAIRELHWHNTPEWAYILKGTTQITAVDQNGRNYLANVSPGDLWYFPEGIPHSLQGTDANNEGSEFLLIFPDGTFDASNQFMITDWLAHTPKDVIAKNFGVDISEFDRLPSHDLYIFPGVAPPLDAKAPEDPQGTVPLPYSFEFSKVKPTQYAGGTVKIADTRTFPIAKTISVAEVTVEPGAMRELHWHPTEDEWTFFIEGQARVTIFAGQSNAQTYDYQGGDIAYIPTAYGHYVENSGNTQLRFLEIFNSPLFEDVSLAQWIANTPPAIVKATLQLSDEVIDSLNKQKASVVG
[4]; other: pH 3.8, pH 3.8
  Km: 380 µM
  kcat: 7.06 s⁻¹
[4]; other: pH 4.8, pH 4.8
  Km: 1210 µM
  kcat: 4.62 s⁻¹
[4]; other: pH 5.8, pH 5.8
  Km: 5250 µM
  kcat: 2.61 s⁻¹

B5: Ceriporiopsis subvermispora oxalate oxidase OXOX-C, SEQ ID NO: 18 (Gelatoporia subvermispora B) (protein)
chain: RPTENGPQIVIANNAGTYLPVLRGSGTKSSSAADATQTVPFASDDPNPRLWDIDTKNLTKVTPERGQLGAKILGPDNLPIDLQNADTLAPPTTDSGSIPNPKWPFALSHNTLYSGGWVRIQNDEVMPIAKAMAGVNMRLEAGAIRELHWHNTPEWAYILKGTTQITAVDQNGRNYLANVGPGDLWYFPEGMPHSLQGTDANNEGSEFLLIFPDGTFDSSNQFMITDWLAHTPKDVIAKNFGVDISEFDRLPSHDLYIFPGVAPPLDAKAPEDPQGTIPLPYSFEFSKVKPTQYAGGTVKIADTRTFPIAKTISVAEVTVEPGAMRELHWHPTEDEWTFFIEGQARVTIFAGQSNAQTYDYQGGDIAYIPTAWGHYVENSGNTTLRFLEIFNSPLFEDVSLAQWIANTPPAIVKATLQLSDEVINTLNKSKAFVVG
[5]; other: pH 3.8, pH 3.8
  Km: 350 µM
  kcat: 5.45 s⁻¹
[5]; other: pH 4.8, pH 4.8
  Km: 1240 µM
  kcat: 2.74 s⁻¹
[5]; other: pH 5.8, pH 5.8
  Km: 5950 µM
  kcat: 0.91 s⁻¹
